Data on 167 variants can be found in the Human Domainome abundance scans (Beltran et al. 2025).

B1: Dynamin-binding protein, residues 146 to 206; numbered along this chain, Q6XZF7 (parent)
chain: SMGQARALMGLSAQLDEELDFREGDVITIIGVPEPGWFEGELEGRRGIFPEGFVELLGPLR

± gives the uncertainty stated by the source.

The variants in the series derive from B1. The experiment in a line: abundance fitness (aPCA) (normalised: wild type 0, dead -1); higher = more abundant; growth selection in yeast, the domain comes from the species named. The conditions noted are these: Homo sapiens.
Consider L42K, for which the abundance fitness was -0.316 ± 0.14. On to L42D, for which the abundance fitness was -0.975 ± 0.15. The value for L42T was -0.769 ± 0.12; that for L42P was -0.5 ± 0.1; that for S12E was -0.426 ± 0.45. As to S12L, the abundance fitness is -0.641 ± 0.12. Take S12M: the abundance fitness is -0.083 ± 0.23. The value for F49D was -0.74 ± 0.097; that for F49K was -0.655 ± 0.21. With F49W, the abundance fitness was -1.1 ± 0.24.

With D25M, the abundance fitness is -0.724 ± 0.14. D25F: the abundance fitness is -0.518 ± 0.075. As to D25K, the abundance fitness is -1.03 ± 0.21. In the case of I48G, the abundance fitness was -1.01 ± 0.095. Turning to I48A, the abundance fitness is -0.777 ± 0.29. The value for I48R was 0.012 ± 0.11; that for I48V was -0.007 ± 0.041; that for I48P was -0.651 ± 0.12. With R6N, the abundance fitness was -0.763 ± 0.094. With R6Q, the abundance fitness is -0.495 ± 0.18. Turning to R6Y, the abundance fitness is -0.471 ± 0.064. Take R45W: the abundance fitness is -0.958 ± 0.25. R45G: the abundance fitness was -0.961 ± 0.27. E41N: the abundance fitness was -0.608 ± 0.071. With E41Q, the abundance fitness was -0.267 ± 0.11. For E41F the value was -0.6 ± 0.29; for E41S, -0.806 ± 0.25. On to E41V, for which the abundance fitness is -0.148 ± 0.039. As for E41M, the abundance fitness was -0.211 ± 0.093. Consider E41I, for which the abundance fitness was -0.073 ± 0.054. Regarding E41W, the abundance fitness was -0.773 ± 0.13. Take E41A: the abundance fitness was -0.32 ± 0.059. Consider G44H, for which the abundance fitness is -0.665 ± 0.1. The value for G44Q was -0.683 ± 0.32; that for G44V was -0.884 ± 0.2. Consider L15G, for which the abundance fitness worked out at 0.08 ± 0.082. L15T: the abundance fitness is 0.273 ± 0.12. In the case of L15E, the abundance fitness stood at 0.034 ± 0.3. For the variant L15S, the abundance fitness worked out at 0.283 ± 0.059. With L15Q, the abundance fitness was found to be 0.137 ± 0.076. For L15F, the abundance fitness came out at 0.037 ± 0.052.

For E18G, the abundance fitness is -0.17 ± 0.039. Take E18I: the abundance fitness is -0.212 ± 0.082.

As for E18K, the abundance fitness was 0.23 ± 0.38.

With E18N, the abundance fitness was -0.236 ± 0.093.

D16F: the abundance fitness is -0.763 ± 0.14. Turning to D16N, the abundance fitness is -0.315 ± 0.1. For T28E the value was 0.016 ± 0.17; for T28W, -0.809 ± 0.38. Turning to T28S, the abundance fitness turned out to be 0.011 ± 0.054. T28C: the abundance fitness is -0.941 ± 0.2.

Regarding Q14K, the abundance fitness is -0.092 ± 0.29. As for Q14I, the abundance fitness is -0.354 ± 0.062. Take Q14D: the abundance fitness was -0.145 ± 0.058. The value for Q14Y was -0.537 ± 0.16; that for Q14V was -0.175 ± 0.082. For Q14R the value was 0.142 ± 0.08; for A13I, -0.541 ± 0.077; for A13H, -0.548 ± 0.072.

On to A13P, for which the abundance fitness is 0.013 ± 0.078. In the case of A13T, the abundance fitness was determined as 0.353 ± 0.23.

As to A13E, the abundance fitness is -0.57 ± 0.18. Consider A13Q, for which the abundance fitness was -0.348 ± 0.12. For the variant E55N, the abundance fitness was -0.939 ± 0.28. E55K: the abundance fitness is -0.253 ± 0.17. Turning to E34I, the abundance fitness was -0.055 ± 0.2. As for E34A, the abundance fitness was -0.42 ± 0.28. For E34Q, the abundance fitness is -0.364 ± 0.21. For the variant E34M, the abundance fitness was -0.398 ± 0.3. As for E34S, the abundance fitness is -0.129 ± 0.12. The value for E34R was 0.025 ± 0.12. In the case of E34L, the abundance fitness was -0.611 ± 0.2. Regarding E34G, the abundance fitness was -0.379 ± 0.16. On to M2V, for which the abundance fitness is -0.277 ± 0.062. For the variant M2C, the abundance fitness is -0.521 ± 0.095.

In the case of M2I, the abundance fitness is -0.03 ± 0.058. Turning to I30C, the abundance fitness is -0.599 ± 0.19. For the variant I30Y, the abundance fitness is -0.286 ± 0.15. Take I30K: the abundance fitness is -0.129 ± 0.14. I30L: the abundance fitness is -0.085 ± 0.13. As to I30M, the abundance fitness was -0.481 ± 0.27. With I30R, the abundance fitness was -0.284 ± 0.11. For I30A the value was -0.374 ± 0.17; for W37S, -0.62 ± 0.16. As to W37G, the abundance fitness is -0.652 ± 0.053. For W37M, the abundance fitness is -0.019 ± 0.075. Consider W37H, for which the abundance fitness was -0.326 ± 0.074. I27E: the abundance fitness was -0.773 ± 0.15.

In the case of I27G, the abundance fitness is -0.627 ± 0.12.

On to I27S, for which the abundance fitness was -0.753 ± 0.054.

In the case of I27D, the abundance fitness was -0.694 ± 0.066.

Take I27K: the abundance fitness was -0.73 ± 0.13. P33S: the abundance fitness is -0.65 ± 0.1. For the variant P33L, the abundance fitness was -0.615 ± 0.19.

As to P33V, the abundance fitness is -0.435 ± 0.17. P33K: the abundance fitness was -0.215 ± 0.13. For P33A, the abundance fitness was -0.971 ± 0.3.

For the variant P33H, the abundance fitness was -0.27 ± 0.11. As to P33N, the abundance fitness is -1.07 ± 0.24. The value for P33T was -0.386 ± 0.16; that for P33C was -0.792 ± 0.18; that for P33G was -0.469 ± 0.12. Regarding P33D, the abundance fitness was -1.11 ± 0.35. For the variant P33R, the abundance fitness is -0.155 ± 0.071. With P33Y, the abundance fitness is -0.587 ± 0.14. Regarding P33W, the abundance fitness was -0.711 ± 0.19. As for P33I, the abundance fitness was -0.494 ± 0.15. As for P33F, the abundance fitness was -0.693 ± 0.33. Take E43L: the abundance fitness is -0.527 ± 0.19. In the case of E43D, the abundance fitness was found to be 0.089 ± 0.06. Turning to E43M, the abundance fitness amounted to 0.06 ± 0.077. The value for E43W was -0.747 ± 0.15; that for F53Y was 0.059 ± 0.091; that for F53E was -0.486 ± 0.2.

Regarding L57K, the abundance fitness was -0.585 ± 0.11. L57D: the abundance fitness is -0.429 ± 0.063.

L57Y: the abundance fitness was -0.578 ± 0.061. For L57N, the abundance fitness was -0.375 ± 0.052. Consider L57P, for which the abundance fitness is -0.655 ± 0.085. Regarding L57Q, the abundance fitness was -0.258 ± 0.16. Turning to L57R, the abundance fitness is -0.43 ± 0.053. Turning to L57V, the abundance fitness was -0.24 ± 0.044. Turning to L57E, the abundance fitness is -0.695 ± 0.27. The value for L57T was -0.437 ± 0.055; that for L57H was -0.629 ± 0.077. L57M: the abundance fitness is -0.251 ± 0.081.

With L57W, the abundance fitness is -1.03 ± 0.2.

In the case of L57I, the abundance fitness is -0.176 ± 0.045. For the variant L57A, the abundance fitness is -0.57 ± 0.068. In the case of G40P, the abundance fitness is -0.502 ± 0.095.

G40F: the abundance fitness was -0.901 ± 0.087. G40E: the abundance fitness was -0.685 ± 0.15. Consider G40Y, for which the abundance fitness is -0.604 ± 0.07. As to G40K, the abundance fitness was -0.906 ± 0.16. For G40L the value was -0.762 ± 0.078; for G40Q, -0.974 ± 0.26. Turning to S1Y, the abundance fitness amounted to 0.064 ± 0.06.

S1W: the abundance fitness was -0.16 ± 0.27. As to S1T, the abundance fitness was -0.092 ± 0.11. In the case of S1R, the abundance fitness is -0.319 ± 0.12.

As for S1V, the abundance fitness was 0.076 ± 0.11. Take A7N: the abundance fitness was -0.781 ± 0.11. On to A7T, for which the abundance fitness is -0.296 ± 0.21.

For the variant A7E, the abundance fitness was -0.989 ± 0.33. For A7Y the value was -0.93 ± 0.12. For the variant A7F, the abundance fitness is -1.01 ± 0.21.

As for A7K, the abundance fitness was -0.672 ± 0.21. With A7V, the abundance fitness was -0.836 ± 0.24. The value for G3W was -0.227 ± 0.072; that for G3N was 0.245 ± 0.043. Turning to I29P, the abundance fitness was -0.595 ± 0.21.

As for I29Q, the abundance fitness is -0.082 ± 0.25.

Turning to I29N, the abundance fitness was -0.461 ± 0.12. The value for I29Y was -0.997 ± 0.27; that for I29F was -0.924 ± 0.2. Take I29A: the abundance fitness is -0.665 ± 0.16. The value for E51S was -0.053 ± 0.065. For E51F, the abundance fitness is -0.621 ± 0.32. With E51P, the abundance fitness is -0.792 ± 0.33. As for E51Q, the abundance fitness was -0.074 ± 0.18. E51N: the abundance fitness is -0.66 ± 0.15. Regarding V26Y, the abundance fitness was -0.416 ± 0.051. In the case of V26R, the abundance fitness is -0.353 ± 0.054. For V26E the value was -0.27 ± 0.13; for V26N, -0.594 ± 0.078. As to V26S, the abundance fitness is -0.704 ± 0.059.

Take V26L: the abundance fitness was determined as 0.043 ± 0.049.
